This is an account of results in paper PMC9304779, “Biochemical characterization of the first step in sulfonolipid biosynthesis in Alistipes finegoldii” (The Journal of Biological Chemistry, 2022).

Assay [1] concerns the target T1, SulA (cysteate acyl-ACP transferase) (Alistipes finegoldii, UniProt I3YKQ4).
T1 construct: gene Alfi_1224
T1 sequence (I3YKQ4 1-423): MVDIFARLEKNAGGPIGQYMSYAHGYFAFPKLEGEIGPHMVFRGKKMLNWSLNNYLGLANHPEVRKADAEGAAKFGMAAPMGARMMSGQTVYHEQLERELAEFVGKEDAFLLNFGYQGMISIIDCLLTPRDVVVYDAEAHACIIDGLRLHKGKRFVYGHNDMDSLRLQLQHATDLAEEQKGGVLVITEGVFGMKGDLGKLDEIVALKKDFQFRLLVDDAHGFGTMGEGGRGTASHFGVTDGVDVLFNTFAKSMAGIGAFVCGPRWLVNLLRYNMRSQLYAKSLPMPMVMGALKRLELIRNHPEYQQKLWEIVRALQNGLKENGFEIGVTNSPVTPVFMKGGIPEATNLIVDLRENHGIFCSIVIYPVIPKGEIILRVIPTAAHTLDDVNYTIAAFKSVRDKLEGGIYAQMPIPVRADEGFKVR
Nature of the assay: X-ray crystal structure […] Å (SeMet-SulA); UV-Vis […] nm internal aldimine. The settings on record: covalent, internal aldimine at Lys251. It is filed as binding.

Assay [2] has as its target T2, SulA (cysteate acyl-ACP transferase) (Alistipes finegoldii, UniProt I3YKQ4, K281A).
T2 construct: gene Alfi_1224
T2 sequence (I3YKQ4 1-423 K281A): T1 sequence (I3YKQ4 1-423)
Nature of the assay: UV-Vis spectral titration (external aldimine, A430). The format is binding. An excerpt: UV-Vis spectral titration (external aldimine, A430) on SulA (cysteate acyl-ACP transferase) | SulA(K281A) bound cysteate and formed the PLP-cysteate external aldimine normally

For assay [3], the target named is T1, SulA (cysteate acyl-ACP transferase). Described as above. It is filed as binding.
The target in assay [4] is cysteate acyl-ACP transferase (SulA), His-tagged (Alistipes finegoldii) (UniProt I3YKQ4).
Assay [5] has the same target. As to the kind of experiment: SEC; calibrated HiLoad 16/600 Superdex 200 column, 200 mM NaCl, 20 mM Tris, pH 8.0; single 85 kDa species against standards. A general note: In gel filtration, larger molecules generally elute earlier.
Assay [6] has the same target. As to the kind of experiment: AUC; sedimentation velocity, 150 mM NaCl, 1 mM DTT, 20 mM potassium phosphate buffer, pH 7.5, 20 °C, 50,000 rpm, interference optics, c(s) in SEDFIT.
Assay [7] has the same target. The description is as above. This is another data set of the same source.

For `Cc1ncc(COP(=O)(O)O)c(C=O)c1O` [PLP], the “X-ray crystal structure 2.9 Å (SeMet-SulA); UV-Vis 390 nm internal aldimine” value in assay [1] is “definitively identifies Lys251 as the PLP attachment site”.
A word on the Kd: it is the equilibrium constant for the complex coming apart. Consider `N[C@@H](CS(=O)(=O)O)C(=O)O` [cysteate], for which the values for the Kd in assay [2] and in assay [3] were 6.11 ± 1.1 mM and 4.86 ± 0.08 mM, respectively.
Take “[14C]16:0-acyl carrier protein (from UniProt P0A6A8 1-78) (natural protein)”: the SulA enzyme activity (formation of 3-keto[14C]capnine, TLC) against 0-200 μM [14C]16:0-ACP with 100 mM cysteate; K0.5 of an allosteric sigmoidal fit in assay [4] is 26.7 µM.
Usually stoichiometry N stands for the number of molecules, sites or subunits per partner or assembly. Consider “cysteate acyl-ACP transferase (SulA), His-tagged (from UniProt I3YKQ4 1-423) (enzyme)”, for which the stoichiometry N in assay [5] is 2; in assay [6], 4; in assay [7], 2.
